B1: His-tagged wild-type swiprosin-1 (natural protein, human, UniProt Q96C19 1-240, looked up)
chain: MATDELATKLSRRLQMEGEGGGETPEQPGLNGAAAAAAGAPDEAAEALGSADCELSAKLLRRADLNQGIGEPQSPSRRVFNPYTEFKEFSRKQIKDMEKMFKQYDAGRDGFIDLMELKLMMEKLGAPQTHLGLKNMIKEVDEDFDSKLSFREFLLIFRKAAAGELQEDSGLCVLARLSEIDVSSEGVKGAKSFFEAKVQAINVSSRFEEEIKAEQEERKKQAEEMKQRKAAFKELQSTFK
notes: swiprosin-1, human, full-length clone amplified from pOTB7 (RZPD), cloned into a modified pET-28a; The modified pET-28a carries a TEV protease cleavage site (ENLYFQ/G) with the N-terminal tandem His tags; no cleavage is described and the protein is detected with anti-His; also called Swip-1; source: E. coli BL21 (DE3), purified (Ni-NTA agarose); not shown: His tag (tandem), N-terminal, kept

Tests used:
[1] = biological target: T1, GST-tagged wild-type swiprosin-1 (human, UniProt Q96C19 1-240); assay: pull-down; GST pull-down: equal amounts of purified GST_Swip-1 (wild type or mutants) and His_Swip-1 with glutathione-Sepharose 4B beads, 2 h at 4°C, 50 mM Hepes pH 7.4, 150 mM NaCl, 1.5 mM MgCl2, 1% Triton X-100; blot with anti-His; also with or without 2 mM EGTA; details: both partners purified
T1 construct: swiprosin-1, human, full length, in pGEX-4T-1; source: E. coli BL21, purified (glutathione beads, eluted with glutathione)
T1 sequence (looked up): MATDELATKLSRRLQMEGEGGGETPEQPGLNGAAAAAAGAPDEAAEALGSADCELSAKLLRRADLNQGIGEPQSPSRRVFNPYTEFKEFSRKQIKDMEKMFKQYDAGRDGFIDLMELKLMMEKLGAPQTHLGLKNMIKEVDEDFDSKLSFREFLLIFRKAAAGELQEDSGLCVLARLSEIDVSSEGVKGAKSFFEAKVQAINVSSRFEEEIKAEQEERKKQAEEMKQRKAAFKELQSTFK

[2] = biological target: B1; assay: as above; details: both partners purified

Binder	binding result [1]	binding result [2]
B1	binds	–
AINVSSRFEEEIKAEQEERKKQAEEMKQRKAAFKELQSTFK (domain or fragment, human, UniProt Q96C19 200-240, looked up, swiprosin-1, human, residues 200–240 (C-terminal coiled-coil region), in pGEX-4T-1; also called 200–240 (i); source: E. coli BL21, purified (glutathione beads, eluted with glutathione)) [GST-tagged swiprosin-1 200–240]	–	binds
GST-tagged swiprosin-1 163–240 (domain or fragment, human, UniProt Q96C19 163-240, looked up, swiprosin-1, human, residues 163–240 (C-terminal region with the coiled-coil domain), in pGEX-4T-1; also called 163–240 (h); source: E. coli BL21, purified (glutathione beads, eluted with glutathione)) GELQEDSGLCVLARLSEIDVSSEGVKGAKSFFEAKVQAINVSSRFEEEIKAEQEERKKQAEEMKQRKAAFKELQSTFK	–	binds

Source: article PMC3744483, “Swiprosin-1 Is a Novel Actin Bundling Protein That Regulates Cell Spreading and Migration” (PLoS ONE, 2013)
